Measured values published in the supplement of paper PMC10567573.

B1: ZNF263 (parent)
chain: QPKKLHLCPLCGKNFSNNSNLIRH
B2: ZNF449 (parent)
chain: HKKKSPGEKPHRCPQCGKCFARKS

Variants of: B1
Experiment: protein stability index of a GFP-peptide fusion (GPS, HEK-293T) (PSI 1-6); higher = more stable
Conditions: c terminus: a fixed tail appended
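Further: lentivirally expressed fusions sorted by FACS into six bins by GFP to DsRed ratio, PSI derived from sequencing read proportions per bin multiplied by bin number.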

Protein stability index: each site, then its substitutions
H6: P 2.11, C 1.99, I 2.05, K 2.81, S 1.71, Q 2.22, E 2.38, T 3.08, G 2.39, A 2.02, W 2.05, M 2.24, F 2.44, D 2.95, L 2.19, N 2.14, R 2.32, Y 2.88, V 2.12
Q1: H 2.69, I 2.61, M 2.6, E 3.16, F 2.21, L 2.4, P 2.43, T 2.5, N 2.83, C 2.69, K 2.64, D 3.09, V 2.12, R 2.47, G 2.33, Y 2.23, A 2.97, W 2.26, S 2.39
C11: F 1.87, R 2.83, S 2.74, K 2.62, Q 2.91, G 2.56, L 2.41, I 2.16, A 3.13, H 2.88, N 2.8, M 2.07, D 3.58, E 3.18, P 3.36
C8: L 1.97, H 2.38, E 3.1, Y 1.82, T 3.03, Q 2.71, P 2.82, S 2.41, M 3.22, R 2.56, G 2.85, N 3, F 2.05, D 2.4, A 2.83, I 2.61, V 3.15, W 1.97, K 2.46
L5: H 2.64, D 3.25, F 1.81, E 2.64, N 2.13, I 2.64, V 3.02, Q 2.54, P 2.09, K 2.67, Y 2.18, R 2.37, C 2.02, W 2.74, S 2.39, G 2.54, M 2.71, T 1.71, A 2.53
K3: A 2.33, N 2.83, D 2.94, H 2.82, E 2.8, W 1.93, V 2.67, Q 2.52, P 2.62, R 2.06, S 2.56, F 2.83, T 2.17, C 2.32, G 2.65, L 2.63, I 2.78, Y 2.05, M 2.78
L10: Q 2.91, W 2.38, N 3.16, P 2.62, V 2.96, D 3.78, S 4.12, F 3.03, M 3.28, I 2.83, T 2.84, K 3.44, Y 2.53, H 3.56, E 3.47, G 2.87, R 3.32, C 4.03, A 2.5
L7: C 2.3, Y 3.02, R 2.72, T 2.74, K 2.88, Q 2.85, I 3.56, A 2.69, W 2.38, D 2.1, M 2.59, S 2.1, G 2.08, H 2.46, F 2.78, N 2.18, E 2.28, V 3.04, P 2.07
K4: H 2.49, L 2.97, E 3.36, Q 3.03, F 2.17, T 2.75, C 2.53, D 3, M 2.53, R 1.88, P 2.69, I 2.85, N 2.92, G 2.63, V 2.62, A 2.19, W 2.47, Y 2.44, S 3.18
P2: Q 2.47, F 2.44, I 2.43, H 1.68, G 2.22, N 2.31, L 1.81, V 2.3, W 2.14, S 2.53, C 2.13, D 2.42, E 2.59, Y 1.89, A 2.42, T 2.57, K 2.17, R 2.06, M 2.27
P9: D 2.56, W 2.4, Y 2.61, C 2.3, T 2.66, I 1.89, G 2.26, K 2.63, N 2.4, Q 2.67, R 2.25, M 2.31, V 2.1, H 2.38, L 2.21, E 2.56, S 2.52, A 2.43, F 1.93

Variants of: B2
Experiment: as above
Conditions: c terminus: a fixed tail appended

Protein stability index: each site, then its substitutions
K18: H 4.25, D 2.17, W 2.5, F 5.18, N 3.87, L 3.13, C 3.29, I 2.52, S 2.94, V 2.9, P 2.97
Q15: K 3.25, E 3.38, W 3.45, H 3.24, I 3.45, F 3.19, M 3.95, Y 3.6
P14: W 2.57, A 3.01, R 3, K 3.78, Y 3.75, E 3.79, T 3.54, F 2.72, H 3.26, V 3.75, I 3.62, N 3.87, S 3.01
R22: M 3.33, L 3.64, G 3.46, K 3.83, Q 3.78, V 3.15, N 3.45, S 2.92, D 3.82, H 3.83, T 4.06
C19: A 3.36, H 4.35, D 3.66, M 2.54, T 3.44, Y 3.99, I 4.05, N 3.79, V 3.41, F 3.48
S24: K 3.99, W 2, T 3.8, P 3.76, C 3.82, D 3.97, V 1.78, F 1.99, I 3.32
C16: I 4.24, H 2.71, N 3.64, G 4.53, P 4.48, Y 4.59, Q 4.18, E 4.71, T 3.71, A 4.73, R 3.42
G17: N 3.75, Q 3.66, C 3.31, W 3.41, H 3.44, D 3.86, Y 3.6, F 3.79
C13: D 4.36, V 4.69, N 4.95, H 4.07, K 4.26, Q 3.88, F 2.71, W 3.15, T 4.67, E 4.34, I 4.05, M 4.82, S 4.4, R 3.91
R12: W 2.68, Y 3.3
K23: R 3.3, I 2.09, L 2.04, S 2.03, Y 3.12, F 1.75, P 2.43, N 2.72, E 2.5, G 3.12, W 2.68, D 3.57
A21: Y 3.27, D 3.51, C 2.66, L 3.26, I 2.92, V 4.04, K 3.99, T 3.69
F20: Y 3.67, D 4.04, A 3.64, S 3.63, N 5.19, I 4.38, P 1.49, V 3.97, R 3.96, E 4.11, L 4.18, H 4.62
